Measurements from patent publication US20260250363A1.

Experiments:
Details in all cases: remark: other sources report otherwise
[1] = target: T1, SARS-CoV-2 Spike Protein, wild type (R&D, Cat. #10549-CV) (SARS-CoV-2), P0DTC2; test: direct ELISA on coated spike
[2] = target: T2, SARS-CoV-2 AY.1 Spike Protein (R&D, Cat. #10922-CV) (SARS-CoV-2), P0DTC2; test: direct ELISA on coated spike
[3] = target: T3, SARS-CoV-2 C.37 Spike His Protein (R&D, Cat. #10887-CV) (SARS-CoV-2), P0DTC2; test: direct ELISA on coated spike
[4] = target: T3, SARS-CoV-2 C.37 Spike His Protein (R&D, …); test: competition ELISA: blocks biotin-ACE2 binding to coated spike
[5] = target: T1, SARS-CoV-2 Spike Protein, wild type …; test: as above
[6] = target: T2, SARS-CoV-2 AY.1 Spike Protein (R&D, …); test: as above
[7] = target: T1, SARS-CoV-2 Spike Protein, wild type …; test: BLI (ForteBio), mAb on AHC sensor, spike in solution
[8] = target: T2, SARS-CoV-2 AY.1 Spike Protein (R&D, …); test: as above
[9] = target: T3, SARS-CoV-2 C.37 Spike His Protein (R&D, …); test: as above
[10] = target: T1, SARS-CoV-2 Spike Protein, wild type …; test: competition ELISA: blocks biotin-ACE2 binding to coated spike; remark: listed apart in the source
[11] = target: T2, SARS-CoV-2 AY.1 Spike Protein (R&D, …); test: as above; remark: listed apart in the source
[12] = target: T3, SARS-CoV-2 C.37 Spike His Protein (R&D, …); test: as above; remark: listed apart in the source

B1: Casirivimab (antibody)
chain 1: QVQLVESGGGLVKPGGSLRLSCAASGFTFSDYYMSWIRQAPGKGLEWVSYITYSGSTIYYADSVKGRFTISRDNAKSSLYLQMNSLRAEDTAVYYCARDRGTTMVPFDYWGQGTLVTVSS
chain 2: DIQMTQSPSSLSASVGDRVTITCQASQDITNYLNWYQQKPGKAPKLLIYAASNLETGVPSRFSGSGSGTDFTFTISGLQPEDIATYYCQQYDNLPLTFGGGTKVEIK
EC50 [1]: 0.0557 nM | EC50 [2]: 0.041 nM | EC50 [3]: 0.0507 nM | IC50 [4]: 1.39 nM | IC50 [5]: 2.94 nM | IC50 [6]: 0.341 nM | Kd [7]: 2.85 nM | Kd [8]: 1.08 nM | Kd [9]: 0.511 nM | IC50 [10]: 3.73 nM | IC50 [11]: 0.646 nM | IC50 [12]: 1.9 nM
